Here are results for two substances from patent US20140323691A1.

Experiment [1] addresses BxpB (exosporium basal layer protein) (Bacillus anthracis).
Experiment [2] shares this target. The experiment is described as follows: LC-MS/MS and immunoblot analyses of BxpB-BclA and BxpB-(BclA NTD-eGFP) complexes. Background: Immunoblotting shows a protein as a band on a membrane.
Experiment [3] shares this target. Kind of experiment: densitometry of anti-BxpB and anti-eGFP immunoblots.

As for “BclA (collagen-like glycoprotein of the Bacillus anthracis exosporium nap)”, the frequency of multiple attachments in experiment [1] turned out to be 57%. This substance also returned an NTDs attached to a single molecule of BxpB (per molecule of BxpB) in experiment [2] of less than 3.
In experiment [3], “BclA NTD-enhanced green fluorescence protein (eGFP) fusion protein” had a fusion proteins per molecule of BxpB (band 1) (per molecule of BxpB) of 1, a fusion proteins per molecule of BxpB (band 2) (per molecule of BxpB) of 2 and a fusion proteins per molecule of BxpB (band 3) (per molecule of BxpB) of 3. The substance further registered a frequency of multiple attachments in experiment [1] of 18%.
